Measured values: publication PMC5828407 (Veterinary Research, 2018)

T1: APN∆1 (401–963 AA) (porcine, UniProt P15145 401-963)
T1 sequence: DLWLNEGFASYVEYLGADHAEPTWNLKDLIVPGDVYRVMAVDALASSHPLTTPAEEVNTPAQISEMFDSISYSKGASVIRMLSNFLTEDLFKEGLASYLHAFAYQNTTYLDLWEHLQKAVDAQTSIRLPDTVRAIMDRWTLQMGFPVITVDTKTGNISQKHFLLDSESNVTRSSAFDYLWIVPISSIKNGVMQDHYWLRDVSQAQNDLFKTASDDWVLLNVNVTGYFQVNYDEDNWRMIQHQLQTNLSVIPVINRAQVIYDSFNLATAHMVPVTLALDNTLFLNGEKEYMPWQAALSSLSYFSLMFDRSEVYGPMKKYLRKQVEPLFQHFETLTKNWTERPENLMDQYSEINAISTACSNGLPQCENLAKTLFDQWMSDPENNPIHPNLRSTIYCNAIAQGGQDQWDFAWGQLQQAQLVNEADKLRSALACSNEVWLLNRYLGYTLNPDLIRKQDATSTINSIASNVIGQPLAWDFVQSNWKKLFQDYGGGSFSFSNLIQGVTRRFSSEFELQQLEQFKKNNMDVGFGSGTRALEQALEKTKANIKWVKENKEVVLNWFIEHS

T2: APN∆5 (332–963 AA) (porcine, UniProt P15145 332-963)
T2 sequence: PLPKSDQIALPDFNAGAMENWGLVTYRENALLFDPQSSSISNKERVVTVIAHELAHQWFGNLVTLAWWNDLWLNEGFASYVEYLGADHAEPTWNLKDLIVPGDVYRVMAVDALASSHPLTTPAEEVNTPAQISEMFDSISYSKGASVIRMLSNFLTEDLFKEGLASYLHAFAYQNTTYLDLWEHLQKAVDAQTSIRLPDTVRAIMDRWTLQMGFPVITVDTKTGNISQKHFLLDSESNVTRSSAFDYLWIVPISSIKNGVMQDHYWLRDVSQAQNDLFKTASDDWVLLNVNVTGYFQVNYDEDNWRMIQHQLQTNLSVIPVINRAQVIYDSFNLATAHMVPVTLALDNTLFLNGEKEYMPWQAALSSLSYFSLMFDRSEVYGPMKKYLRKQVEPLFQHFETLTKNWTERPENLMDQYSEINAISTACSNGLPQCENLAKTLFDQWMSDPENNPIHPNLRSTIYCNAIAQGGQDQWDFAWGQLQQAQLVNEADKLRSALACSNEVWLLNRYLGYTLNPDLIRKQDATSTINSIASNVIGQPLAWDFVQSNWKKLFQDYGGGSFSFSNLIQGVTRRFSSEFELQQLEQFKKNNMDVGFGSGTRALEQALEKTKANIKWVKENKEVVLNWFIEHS

B1: GST-tagged FaeG fusion protein of F4ab (natural protein)
chain: WMTGDFNGSVDIGGSITADDYRQKWEWKVGTGLNGFGNVLNDLTNGGTKLTITVTGNKPILLGRTKEAFATPVSGGVDGIPQIAFTDYEGASVKLRNTDGETNKGLAYFVLPMKNAEGTKVGSVKVNASYAGVFGKGGVTSADGELFSLFADGLRAIFYGGLTTTVSGAALTSGSAAAARTELFGSLSRNDILGQIQRVNANITSLVDVAGSYREDMEYTDGTVVSAAYALGIANGQTIEATFNQAVTTSTQWSAPLNVAITYY
B2: porcine aminopeptidase N (APN), His-tagged whole protein (receptor)
chain: MAKGFYISKALGILGILLGVAAVATIIALSVVYAQEKNKNAEHVPQAPTSPTITTTAAITLDQSKPWNRYRLPTTLLPDSYNVTLRPYLTPNADGLYIFKGKSIVRLLCQEPTDVIIIHSKKLNYTTQGHMVVLRGVGDSQVPEIDRTELVELTEYLVVHLKGSLQPGHMYEMESEFQGELADDLAGFYRSEYMEGNVKKVLATTQMQSTDARKSFPCFDEPAMKATFNITLIHPNNLTALSNMPPKGSSTPLAEDPNWSVTEFETTPVMSTYLLAYIVSEFQSVNETAQNGVLIRIWARPNAIAEGHGMYALNVTGPILNFFANHYNTSYPLPKSDQIALPDFNAGAMENWGLVTYRENALLFDPQSSSISNKERVVTVIAHELAHQWFGNLVTLAWWNDLWLNEGFASYVEYLGADHAEPTWNLKDLIVPGDVYRVMAVDALASSHPLTTPAEEVNTPAQISEMFDSISYSKGASVIRMLSNFLTEDLFKEGLASYLHAFAYQNTTYLDLWEHLQKAVDAQTSIRLPDTVRAIMDRWTLQMGFPVITVDTKTGNISQKHFLLDSESNVTRSSAFDYLWIVPISSIKNGVMQDHYWLRDVSQAQNDLFKTASDDWVLLNVNVTGYFQVNYDEDNWRMIQHQLQTNLSVIPVINRAQVIYDSFNLATAHMVPVTLALDNTLFLNGEKEYMPWQAALSSLSYFSLMFDRSEVYGPMKKYLRKQVEPLFQHFETLTKNWTERPENLMDQYSEINAISTACSNGLPQCENLAKTLFDQWMSDPENNPIHPNLRSTIYCNAIAQGGQDQWDFAWGQLQQAQLVNEADKLRSALACSNEVWLLNRYLGYTLNPDLIRKQDATSTINSIASNVIGQPLAWDFVQSNWKKLFQDYGGGSFSFSNLIQGVTRRFSSEFELQQLEQFKKNNMDVGFGSGTRALEQALEKTKANIKWVKENKEVVLNWFIEHS
B3: GST-tagged FaeG fusion protein of F4ad (natural protein)
chain: WMTGDFNGSVDIGGSITADDYRQKWEWKVGTGLNGFGNVLNDLTNGGTKLTITVTGNKPILLGRTKEAFATPVTSGVDGIPHIAFTDYEGASVELRNPDGETEKGLAYFVLPMKNAEGTKVGSVKVNASYAGALGRGGVTSADGELMSLFAEGSHAIFYGGLPTNVKNSELKGGSAAAARTELFGSLSKNDILGQIQRVNANITSLVNVPGSFNENMAYTDGSVVSVAYALGIANGQTIEATFNQAVTTSTQWSAPLNVAITYY

Tests used:
Settings in all cases: both partners purified
[1] = target: B2; assay: ELISA; APN protein coated on plates, incubated with FaeG peptides, fusion FaeG proteins or F4 fimbriae; absorbance at 450 nm
APN∆1 (401–963 AA) = target: T1, APN∆1 (401–963 AA); assay: ELISA; indirect ELISA: APN and its five truncated proteins coated at 100 μg/mL in carbonate-bicarbonate buffer pH 9.6, incubated with 100 μg/mL FaeG fusion protein, detected with anti-F4 monoclonal antibody
APN∆5 (332–963 AA) = target: T2, APN∆5 (332–963 AA); assay: as above
[2] = target: GST-tagged FaeG fusion protein of F4ac (Escherichia coli, UniProt P14190 22-283); assay: ELISA; APN protein coated on plates, incubated with FaeG peptides, fusion FaeG proteins or F4 fimbriae; absorbance at 450 nm

Binder | binding result [1] | binding result (APN∆1 (401–963 AA)) | binding result (APN∆5 (332–963 AA)) | binding result [2]
B1 | binds | binds | binds | 
B2 |  |  |  | binds
B3 | binds | binds | binds | 
